# T1: His-MBP-SIZ1-C (Arabidopsis thaliana, UniProt Q680Q4-3 435-873)
# T1 sequence (looked up): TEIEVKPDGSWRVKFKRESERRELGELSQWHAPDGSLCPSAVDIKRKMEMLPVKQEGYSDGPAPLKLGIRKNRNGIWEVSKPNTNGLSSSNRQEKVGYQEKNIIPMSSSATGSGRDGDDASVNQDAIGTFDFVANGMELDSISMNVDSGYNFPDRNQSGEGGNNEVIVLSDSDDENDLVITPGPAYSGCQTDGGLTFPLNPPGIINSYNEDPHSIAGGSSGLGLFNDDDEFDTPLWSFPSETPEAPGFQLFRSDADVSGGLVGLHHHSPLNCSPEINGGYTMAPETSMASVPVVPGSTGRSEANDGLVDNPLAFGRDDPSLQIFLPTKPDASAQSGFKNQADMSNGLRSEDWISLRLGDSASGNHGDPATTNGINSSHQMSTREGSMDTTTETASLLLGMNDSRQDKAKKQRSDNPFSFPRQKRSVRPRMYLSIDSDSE
# Target: T1, His-MBP-SIZ1-C
# Experiment: pull-down
row,binding result,Binder
1,binds,"GST-SnRK2.6 (enzyme, Arabidopsis thaliana, UniProt Q940H6 1-362, looked up) MDRPAVSGPMDLPIMHDSDRYELVKDIGSGNFGVARLMRDKQSNELVAVKYIERGEKIDENVKREIINHRSLRHPNIVRFKEVILTPTHLAIVMEYASGGELFERICNAGRFSEDEARFFFQQLISGVSYCHAMQVCHRDLKLENTLLDGSPAPRLKICDFGYSKSSVLHSQPKSTVGTPAYIAPEVLLKKEYDGKVADVWSCGVTLYVMLVGAYPFEDPEEPKNFRKTIHRILNVQYAIPDYVHISPECRHLISRIFVADPAKRISIPEIRNHEWFLKNLPADLMNDNTMTTQFDESDQPGQSIEEIMQIIAEATVPPAGTQNLNHYLTGSLDIDDDMEEDLESDLDDLDIDSSGEIVYAM"
2,binds,"GST-SnRK2.4 (enzyme, Arabidopsis thaliana, UniProt P43291 1-363, looked up) MDKYELVKDIGAGNFGVARLMKVKNSKELVAMKYIERGPKIDENVAREIINHRSLRHPNIIRFKEVVLTPTHLAIAMEYAAGGELFERICSAGRFSEDEARYFFQQLISGVSYCHAMQICHRDLKLENTLLDGSPAPRLKICDFGYSKSSLLHSRPKSTVGTPAYIAPEVLSRREYDGKMADVWSCGVTLYVMLVGAYPFEDQEDPKNFRKTIQKIMAVQYKIPDYVHISQDCKNLLSRIFVANSLKRITIAEIKKHSWFLKNLPRELTETAQAAYFKKENPTFSLQTVEEIMKIVADAKTPPPVSRSIGGFGWGGNGDADGKEEDAEDVEEEEEEVEEEEDDEDEYDKTVKEVHASGEVRIS"

# Source: doi:10.1101/2023.04.25.538284 (bioRxiv, 2023)
